Test results published in patent publication US20060034863A1 (CHEMOCENTRYX, published 2006).

Assays:
[1] = biological target: T1, formyl peptide receptor like 1 (FPRL1) (human, UniProt P25090 1-351); assay: cell-based or functional assay
T1 sequence (looked up): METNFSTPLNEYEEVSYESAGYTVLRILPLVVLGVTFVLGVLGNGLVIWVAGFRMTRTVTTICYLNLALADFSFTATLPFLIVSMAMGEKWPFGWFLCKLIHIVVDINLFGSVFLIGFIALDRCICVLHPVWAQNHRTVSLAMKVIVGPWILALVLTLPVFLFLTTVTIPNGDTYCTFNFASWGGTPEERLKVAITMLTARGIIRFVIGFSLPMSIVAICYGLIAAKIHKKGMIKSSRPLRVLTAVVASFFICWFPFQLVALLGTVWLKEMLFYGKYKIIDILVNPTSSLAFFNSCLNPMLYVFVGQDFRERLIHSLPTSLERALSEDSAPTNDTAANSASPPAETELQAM

[2] = biological target: T2, human chemokine receptor CCR1 (human, UniProt P32246 1-355); assay: displacement of 125I-MIP-1α from HEK293-CCR1 cells, filter binding, 3 h at 4°C
T2 construct: whole, on cells; also called HEK293-CCR1 transfectants
T2 sequence (looked up): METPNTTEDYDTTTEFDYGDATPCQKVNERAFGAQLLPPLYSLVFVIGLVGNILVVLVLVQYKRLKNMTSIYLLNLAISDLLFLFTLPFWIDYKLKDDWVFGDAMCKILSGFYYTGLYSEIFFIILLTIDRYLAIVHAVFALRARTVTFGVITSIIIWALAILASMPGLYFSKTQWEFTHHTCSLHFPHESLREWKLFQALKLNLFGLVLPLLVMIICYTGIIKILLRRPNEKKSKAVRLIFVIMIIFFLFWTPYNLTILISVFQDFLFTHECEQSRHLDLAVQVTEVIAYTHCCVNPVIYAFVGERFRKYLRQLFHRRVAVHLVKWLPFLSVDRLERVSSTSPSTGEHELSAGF
Procedure: (§1) The binding characteristics of CCL23 variants was compared in human CCR1 expressing cells. […] Reactions mixtures were aspirated onto PEI-treated GF/B glass filters using a cell harvester (Packard). The filters were washed twice (25 mM HEPES, 500 mM NaCl, 1 mM CaCl₂, 5 mM MgCl₂, adjusted to pH 7.1). Scintillant (MicroScint-10; 35 μl) was added to dried filters and the filiters counted in a Packard Topcount scintillation counter. Data were analyzed and plotted using Prism software (GraphPad Software, San Diego, Calif.).

[3] = biological target: MIP-1α binding sites on human monocytes (human); assay: displacement of 125I-MIP-1α from human monocytes, filter binding
[4] = biological target: T1, formyl peptide receptor like 1 (FPRL1); assay: displacement of 0.01 nM 125I-WKYMVm from L1.2 FPRL1 cells, 3 h at 4°C
Text: (§2) The IC50 for each interaction was derived from non-linear least squares curve fitting of the data by using Prism software (GraphPad Software).

[5] = biological target: T1, formyl peptide receptor like 1 (FPRL1); assay: displacement of 0.01 nM 125I-WKYMVm from human monocytes, 3 h at 4°C
Text: as §2

[6] = biological target: T1, formyl peptide receptor like 1 (FPRL1); assay: cell-based or functional assay; remark: listed apart in the source
[7] = biological target: T2, human chemokine receptor CCR1; assay: displacement of 125I-MIP-1α from HEK293-CCR1 cells
Procedure: as §1

[8] = biological target: MIP-1α binding sites on human monocytes (human); assay: 125I-MIP-1α competition binding on human monocytes against HEK293-CCR1 cells
[9] = biological target: T1, formyl peptide receptor like 1 (FPRL1); assay: 125I-WKYMVm displacement on FPRL1-L1.2 transfectants and human monocytes
Text: as §2

Row | Binder | Induction of Calcium Flux in FPRL1 L1.2 Cells (IC 50) [1] [nM] | IC50 [2] [nM] | IC50 [3] [nM] | also measured
1 | MLWRRKIGPQMTLSHAAY [SHAAYtide (SEQ ID NO: 6)] | 38 |  |  | 
2 | MLWRRKIGPQMT [SHAAGtide truncated variant CCXP5 (SEQ ID NO: 5)] | 7.4 |  |  | 
3 | MLWRRKIGPQMTLSH [SHAAGtide truncated variant CCXP3 (SEQ ID NO: 3)] | 68 |  |  | 
4 | MLWRRKIGPQM [SHAAGtide truncated variant CCXP8 (SEQ ID NO: 8)] | 45 |  |  | 
5 | MLWRRKIGPQMTLSHAAG [SHAAGtide (SEQ ID NO: 1)] | 150 |  |  | 
6 | MIP-1α (ligand, human, UniProt P10147 27-92, looked up, also called macrophage inflammatory protein) ADTPTACCFSYTSRQIPQNFIADYFETSSQCSKPGVIFLTKRSRQVCADPSEEWVQKYVSDLELSA |  | 0.54 | 0.27 | 
7 | CKβ8-1(25-116) (ligand, Human recombinant chemokine bought from R&D Systems; NH2-terminal truncated form of CKβ8-1; also called CCL23 variant) MLWRRKIGPQMTLSHAAGFHATSADCCISYTPRSIPCSLLESYFETNSECSKPGVIFLTKKGRRFCANPSDKQVQVCMRMLKLDTRIKTRKN | 11 | 112 | 5.1 | IC50 [4]: 196 nM; IC50 [5]: 31 nM; EC50 of calcium flux dose response in FPRL1-L1.2 transfectants [6]: 10 to 20 nM; fold IC50 change against CKβ8-1(1-116) [7]: 1 fold; fold higher MIP-1α displacement activity on monocytes than on HEK293-CCR1 cells [8]: > 10 fold
8 | CKβ8(1-99) (ligand, Human recombinant chemokine bought from R&D Systems; also called CCL23 variant; CKβ (1-99)) RVTKDAETEFMMSKLPLENPVLLDRFHATSADCCISYTPRSIPCSLLESYFETNSECSKPGVIFLTKKGRRFCANPSDKQVQVCMRMLKLDTRIKTRKN |  | 64 | 10.3 | binding result [9]: no binding
9 | CKβ8(25-99) (ligand, Human recombinant chemokine bought from R&D Systems; also called CCL23 variant; CKβ (25-99)) RFHATSADCCISYTPRSIPCSLLESYFETNSECSKPGVIFLTKKGRRFCANPSDKQVQVCMRMLKLDTRIKTRKN |  | 1.34 | 0.25 | binding result [9]: no binding; fold IC50 change against CKβ8(1-99) [7]: 40 fold
10 | RRKIGPQMTLSHAAG [SHAAGtide truncated variant CCXP2 (SEQ ID NO: 2)] | > 50000 |  |  | 
11 | CKβ8-1(1-116) (ligand, Human recombinant chemokine bought from R&D Systems; also called CCL23 variant) RVTKDAETEFMMSKLPLENPVLLDMLWRRKIGPQMTLSHAAGFHATSADCCISYTPRSIPCSLLESYFETNSECSKPGVIFLTKKGRRFCANPSDKQVQVCMRMLKLDTRIKTRKN |  | 206 | 55 | binding result [9]: no binding
